One block for each binder: values may come before it.
Columns and labels:
[1] = target: T1, BCMA-Fc (soluble human BCMA fused at its C-terminus to an Fc region of IgG) (human, UniProt Q02223 1-54); assay: flow cytometry, T cells transduced with O/SSE construct, CD4 gate, recombinant BCMA-Fc (rBCMA) staining against surrogate marker
T1 construct: also called hBCMA-Fc; hBMCA-Fc
T1 sequence: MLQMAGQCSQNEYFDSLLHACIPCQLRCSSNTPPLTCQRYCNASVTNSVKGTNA
Procedure: (§1) Lentiviral constructs containing anti-BCMA CAR-encoding polynucleotides with starting and optimized sequences, respectively, as described in Example 3, were transduced into T cells and transduced cells were analyzed for transduction (based on expression of a surrogate marker) and for CAR expression based on binding to recombinant BCMA-Fc fusion protein by flow cytometry.

[2] = target: T1, BCMA-Fc (soluble human BCMA fused at …); assay: flow cytometry, T cells transduced with O/SSE construct, CD8 gate, recombinant BCMA-Fc (rBCMA) staining against surrogate marker
Procedure: as §1

[3] = target: T1, BCMA-Fc (soluble human BCMA fused at …); assay: flow cytometry, T cells transduced with Non-SSE construct, CD4 gate, recombinant BCMA-Fc (rBCMA) staining against surrogate marker
Procedure: as §1

[4] = target: T1, BCMA-Fc (soluble human BCMA fused at …); assay: flow cytometry, T cells transduced with Non-SSE construct, CD8 gate, recombinant BCMA-Fc (rBCMA) staining against surrogate marker
Procedure: as §1

[5] = target: T2, human BCMA peptide 30SNTPPLTCQR39 (human); assay: CLIPS peptide array, ELISA
T2 construct: Could be recognized in a linear form
T2 peptide: SNTPPLTCQR
Procedure: Mapping was carried out using anti-BCMA scFv clones, such as those fused with mouse Fc (scFv-mFc).
Linear and conformational peptide libraries of amino acid residues 1-54 of human BCMA (set forth as amino acid residues 1-54 of SEQ ID NO:367) were generated based on a combinatorial matrix design. Linear peptides and structural mimetics including single loop, a-helix, 3-turn, combinatorial and linear disulfide bridge mimics, and discontinuous epitope mimics were used, along with positive and negative control peptides, on an amino-functionalized solid support.
Affinities for binding to the peptides in the epitope library were determined using ELISA. The peptide arrays were incubated with a solution containing the scFv overnight at 4° C. Affinity information was used in iterative screens to define the sequence and conformation of epitopes. Heat maps of affinity information for two or more loops were generated.

[6] = target: T3, human B-cell maturation antigen (BCMA) on cells (human, UniProt Q02223 1-184); assay: flow cytometry on BCMA-expressing HEK293 cells vs control cells, crude lysate or bacterial supernatant; clone listed in Table E2
T3 construct: Recombinant on HEK293 or K562 cells, or endogenous on cell lines (H929, RPMI 8226, OPM2, MM1S, Daudi); also called hBCMA; huBCMA
T3 chain: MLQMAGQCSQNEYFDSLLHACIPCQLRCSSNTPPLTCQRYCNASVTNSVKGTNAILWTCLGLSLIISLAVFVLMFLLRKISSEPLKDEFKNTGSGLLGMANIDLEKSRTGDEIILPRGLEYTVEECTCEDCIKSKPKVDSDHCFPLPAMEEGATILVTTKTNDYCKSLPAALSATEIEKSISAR
Procedure: Specific binding of resulting scFv clones to BCMA-expressing HEK293 cells, as compared to control cells not expressing BCMA, was assessed by flow cytometry either with in vitro translated crude cell lysate or with bacterially-produced supernatant.

% of cells in Q1 (rBCMA+ marker-) [1]: 2.36% | % of cells in Q3 (rBCMA- marker+) [1]: 10.4% | % of cells in Q4 (rBCMA- marker-) [1]: 22.3% | % of cells in Q1 (rBCMA+ marker-) [2]: 1.37% | % of cells in Q3 (rBCMA- marker+) [2]: 17.5% | % of cells in Q4 (rBCMA- marker-) [2]: 19.4% | % of cells in Q1 (rBCMA+ marker-) [3]: 0.31% | % of cells in Q3 (rBCMA- marker+) [3]: 30.5% | % of cells in Q4 (rBCMA- marker-) [3]: 51.3% | % of cells in Q1 (rBCMA+ marker-) [4]: 0.37% | % of cells in Q3 (rBCMA- marker+) [4]: 29.4% | % of cells in Q4 (rBCMA- marker-) [4]: 52.5%
B2: BCMA-25-LS CAR (other)
chain: EVQLVQSGGGLVQPGRSLRLSCTASGFTFGDYAMSWFRQAPGKGLEWVGFIRSKAYGGTTEYAASVKGRFTISRDDSKSIAYLQMNSLKTEDTAVYYCAAWSAPTDYWGQGTLVTVSSGGGGSGGGGSGGGGSDIQMTQSPAFLSASVGDRVTVTCRASQGISNYLAWYQQKPGNAPRLLIYSASTLQSGVPSRFRGTGYGTEFSLTIDSLQPEDFATYYCQQSYTSRQTFGPGTRLDIKESKYGPPCPPCPAPPVAGPSVFLFPPKPKDTLMISRTPEVTCVVVDVSQEDPEVQFNWYVDGVEVHNAKTKPREEQFQSTYRVVSVLTVLHQDWLNGKEYKCKVSNKGLPSSIEKTISKAKGQPREPQVYTLPPSQEEMTKNQVSLTCLVKGFYPSDIAVEWESNGQPENNYKTTPPVLDSDGSFFLYSRLTVDKSRWQEGNVFSCSVMHEALHNHYTQKSLSLSLGKMFWVLVVVGGVLACYSLLVTVAFIIFWVKRGRKKLLYIFKQPFMRPVQTTQEEDGCSCRFPEEEEGGCELRVKFSRSADAPAYQQGQNQLYNELNLGRREEYDVLDKRRGRDPEMGGKPRRKNPQEGLYNELQKDKMAEAYSEIGMKGERRRGKGHDGLYQGLSTATKDTYDALHMQALPPR
notes: Chimeric antigen receptor; signal peptide left out; also called BCMA-25-LS-O/SSE CAR; BCMA-25-L CAR

binding result [5]: binds
B5: BCMA-23 scFv (scFv)
scFv: EVQLVESGGGLVKPGGSLRLSCAASGFTFSDYYMSWIRQAPGKGLEWVSYISSSGSTIYYADSVKGRFTISRDNAKNSLYLQMNSLRAEDTAVYYCAKVDGDYTEDYWGQGTLVTVSSGGGGSGGGGSGGGGSQSALTQPASVSGSPGQSITISCTGSSSDVGKYNLVSWYQQPPGKAPKLIIYDVNKRPSGVSNRFSGSKSGNTATLTISGLQGDDEADYYCSSYGGSRSYVFGTGTKVTVL

binding result [6]: binds
B7: BCMA-42 scFv (scFv)
scFv: EVQLLESGGGLVQPGRSLRLSCTASGFTFGDYAMSWFRQAPGKGLEWVGFIRSKAYGGTTEYAASVKGRFTISRDDSKSIAYLQMNSLKTEDTAVYYCAAWSAPTDYWGQGTLVTVSSGGGGSGGGGSGGGGSDIQMTQSPSLVSASVGDRVTITCRASQGIGNGLAWYQQKPGKAPKLLLFAASRLESGVPSRFSGSRSGTDYTLTISSLQPEDVATYYCQQYVEDALTFGGGTKVDIK

The remaining lines, values behind:

B1: BCMA-52-LS CAR (other)
chain: SYELTQPPSASGTPGQRVTMSCSGTSSNIGSHSVNWYQQLPGTAPKLLIYTNNQRPSGVPDRFSGSKSGTSASLAISGLQSEDEADYYCAAWDGSLNGLVFGGGTKLTVLGSRGGGGSGGGGSGGGGSLEMAEVQLVQSGAEVKKPGESLKISCKGSGYSFTSYWIGWVRQMPGKGLEWMGIIYPGDSDTRYSPSFQGHVTISADKSISTAYLQWSSLKASDTAMYYCARYSGSFDNWGQGTLVTVSSESKYGPPCPPCPAPPVAGPSVFLFPPKPKDTLMISRTPEVTCVVVDVSQEDPEVQFNWYVDGVEVHNAKTKPREEQFQSTYRVVSVLTVLHQDWLNGKEYKCKVSNKGLPSSIEKTISKAKGQPREPQVYTLPPSQEEMTKNQVSLTCLVKGFYPSDIAVEWESNGQPENNYKTTPPVLDSDGSFFLYSRLTVDKSRWQEGNVFSCSVMHEALHNHYTQKSLSLSLGKMFWVLVVVGGVLACYSLLVTVAFIIFWVKRGRKKLLYIFKQPFMRPVQTTQEEDGCSCRFPEEEEGGCELRVKFSRSADAPAYQQGQNQLYNELNLGRREEYDVLDKRRGRDPEMGGKPRRKNPQEGLYNELQKDKMAEAYSEIGMKGERRRGKGHDGLYQGLSTATKDTYDALHMQALPPR
notes: Chimeric antigen receptor on T cells; also called BCMA-52-LS-O/SSE CAR; BCMA-52-L CAR
% of cells in Q1 (rBCMA+ marker-) [1]: 3.66% | % of cells in Q3 (rBCMA- marker+) [1]: 3.85% | % of cells in Q4 (rBCMA- marker-) [1]: 22.9% | % of cells in Q1 (rBCMA+ marker-) [2]: 3.89% | % of cells in Q3 (rBCMA- marker+) [2]: 5.38% | % of cells in Q4 (rBCMA- marker-) [2]: 28.3% | % of cells in Q1 (rBCMA+ marker-) [3]: 1.71% | % of cells in Q3 (rBCMA- marker+) [3]: 19.5% | % of cells in Q4 (rBCMA- marker-) [3]: 42.5% | % of cells in Q1 (rBCMA+ marker-) [4]: 2.88% | % of cells in Q3 (rBCMA- marker+) [4]: 24.3% | % of cells in Q4 (rBCMA- marker-) [4]: 41.1%

B3: BCMA-1 scFv (scFv)
scFv: QVQLVQSGGGLVQPGRSLRLSCTASGFTFGDYAMSWFRQAPGKGLEWVGFIRSKAYGGTTEYAASVKGRFTISRDDSKSIAYLQMNSLKTEDTAVYYCAAWSAPTDYWGQGTLVTVSSGGGGSGGGGSGGGGSDIVMTQSPDSLSVSPGERATISCKSSQSVLSTSNNKNYLAWYQQKPGQPPRLLLYWASTREAGVPDRFSGSGSGTDFTLTISSLQAEDVAVYYCQQYFSSPYTFGHGTKLEIK
binding result [5]: binds | binding result [6]: binds

B4: BCMA-5 scFv (scFv)
scFv: QVQLVQSGGGLVQPGRSLRLSCTASGFTFGDYAMSWFRQAPGKGLEWVGFIRSKAYGGTTEYAASVKGRFTISRDDSKSIAYLQMNSLKTEDTAVYYCAAWSAPTDYWGQGTLVTVSSGGGGSGGGGSGGGGSDIVMTQSPDSLAVSLGERATINCKSSQSVLYSSNNKNYLAWYQQKPGQPPKLLIYWASTRESGVPDRFSGSGSGTDFTLTISSLQAEDVAVYYCQQYYSTPWTFGQGTKVDIK
binding result [5]: binds | binding result [6]: binds

B6: BCMA-48 scFv (scFv)
scFv: EVQLVESGGGLVKPGGSLRLSCAASGFTFSDYYMSWIRQAPGKGLEWVSYISSSGSTIYYADSVKGRFTISRDNAKNSLYLQMNSLRAEDTAVYYCAKVDGPPSFDIWGQGTMVTVSSGGGGSGGGGSGGGGSQPVLTQPPSVSVAPGKTATITCGGNNIGSKSVHWYQRKPGQGPVVVIQYDTDRPSGIPERFSGSNSGNTATLTISRVEAGDEGDYYCQVWDSSSDHWVFGGGTKLTVL
binding result [6]: binds

B8: BCMA-45 scFv (scFv)
scFv: QVQLVQSGGGLVQPGRSLRLSCTASGFTFGDYAMSWFRQAPGKGLEWVGFIRSKAYGGTTEYAASVKGRFTISRDDSKSIAYLQMNSLKTEDTAVYYCAAWSAPTDYWGQGTLVTVSSGGGGSGGGGSGGGGSAIRMTQSPSSLSASVGDRVTITCRASQGIGRSLAWYKQKPGGVPQLLIHDASSLRSGVPSRFSGSGSGTEFTLTISGVQSEDSATYHCQQLNGYPWTFGQGTKVDIK
binding result [6]: binds

B9: BCMA-49 scFv (scFv)
scFv: QVQLVESGGGLVKPGGSLRLSCAASGFTFSDYYMSWIRQAPGKGLEWVSYISSSGSTIYYADSVKGRFTISRDNAKNSLYLQMNSLRAEDTAVYYCAKVDGPPSFDIWGQGTMVTVSSGGGGSGGGGSGGGGSLPVLTQPPSVSVAPGKTARITCGGDQIGRKSVHWYQQKPGQAPVLVMSYDSDRPSGIPERFSGSNSGNTATLTISRVEAGDEAAYYCQVWDSSTGQYVVFGGGTKLTVL
binding result [6]: binds

B10: BCMA-51 scFv (scFv)
scFv: EVQLVQSGGGLVQPGRSLRLSCTASGFTFGDYAMSWFRQAPGKGLEWVGFIRSKAYGGTTEYAASVKGRFTISRDDSKSIAYLQMNSLKTEDTAVYYCAAWSAPTDYWGQGTLVTVSSGGGGSGGGGSGGGGSAIQLTQSPSTLSASVGDRVAITCRASQNIGDWLAWYQQKPGKAPKLLIFGASILESGVPSRFSGSGSGTDFTLTISSLQPEDVAVYYCQKYDGAPPWTFGQGTKVEIK
binding result [6]: binds
